Reference: PMC6163455 (Biomolecules, 2018)

System: CHO-K1 cells
Assay: cell fractionation and anti-β-lactamase immunoblotting
Type: cell-based, Chinese hamster
Details: 8 µM, 1.5 h at 37 °C, digitonin cytosol extraction, 4 µg aliquots, anti-β-lactamase antibody, Figure S1
Description: Supplementary Information
Supplementary Figures: β-Lactamase Tools for Establishing Cell Internalization and Cytosolic
Delivery of Cell Penetrating Peptides
Figure S1. Verification of cell penetrating peptides (CPP)-mediated β-lactamase internalization by immunoblotting. MW: molecular weight.
Aliquots (4 µg) of cytosolic and membrane soluble CHO-K1 cell fractions from β-lactamase assays were separated by sodium dodecyl sulfate–polyacrylamide gel electrophoresis (SDS-PAGE) through a 4-12% (w/v) polyacrylamide Bis-Tris gel, transferred to polyvinylidene difluoride (PVDF) membrane, and immunoblotted. β-lactamase conjugated (e.g., 1746_SpyT/SpyC_BLA) or fused (e.g., 1746_BLA recombinant) to 1746c27 and 1746 Phylomer cell penetrating peptides (CPPs) was detected in the cytosolic fraction to varying extents, while TAT-conjugated β-lactamase was predominantly detected in the membrane fraction of cell lysates. […]
delivered into the cytosol by the 1746 CPP. Internalization of unconjugated SpyC_BLA protein was not detected, either on its own (SpyC_BLA (no CPP)) or in the presence of 1746c27 peptide (1746c27, SpyC_BLA), illustrating there is no bystander uptake effect. […]
Aliquots of extracted fractions (4 µg) were separated through a 4–12% Bis-Tris gel (Invitrogen, Carlsbad, CA, USA). Protein expression in the fractions was detected using monoclonal anti-β- […]

B1: 1746_BLA: recombinant fusion of phylomer CPP 1746 with β-lactamase (protein)
chain: MASPLKPKKPKTQEKKKKQPPKPKKPKTQEKKKKQPPKPKRASSGSHHHHHHGATLEVLFQGPGGSHPETLVKVKDAEDQLGARVGYIELDLNSGKILESFRPEERFPMMSTFKVLLCGAVLSRIDAGQEQLGRRIHYSQNDLVEYSPVTEKHLTDGMTVRELCSAAITMSDNTAANLLLTTIGGPKELTAFLHNMGDHVTRLDRWEPELNEAIPNDERDTTTPAAMATTLRKLLTGELLTLASRQQLIDWMEADKVAGPLLRSALPAGWFIADKSGAGERGSRGIIAALGPDGKPSRIVVIYTTGSQATMDERNRQIAEIGASLIKHWQLGSASGTTGATSG
  β-lactamase detected in cytosolic and membrane cell fractions (immunoblot): very strong signal in the cytosolic fractions
